Experimental data taken from WO2020003077A1 (dated 2020).

Assays:
human thrombin [1] = target: T1, human thrombin (human, UniProt P00734 314-363; P00734 364-622); experiment: cell-based or functional assay
prothrombin = prothrombin (UniProt P00734 44-622); experiment: ForteBio Octet, immobilized IgG
human thrombin [2] = target: T1, human thrombin; experiment: standard ELISA binding assay

B1: wild-type anti-exosite 1 IgA antibody (antibody, V domains shown)
VH: QVQLIQSGSAVKKPGASVRVSCKVSGYTLTEAAIHWVRQAPGKGLEWMGGLDPQDGETVYAQQFKGRVTMTEDRSTDTAYMEVNNLRSEDTATYYCTTGDFSEFEPFSMDYFHFWGQGTVVTVAS
VL: EIVLTQSPATLSLSPGERATLSCRASQNVSSFLAWYQHKPGQAPRLLIYDASSRATDIPIRFSGSGSGTDFTLTISGLEPEDFAVYYCQQRRSWPPLTFGGGTKVEIKR
thrombin hydrolysis of FVIII (feedback activation of thrombin via Xase complex), antibody effect (human thrombin [1]): 7 fold decrease | thrombin hydrolysis of platelet receptor PAR-1 peptide (activation of platelets), antibody effect (human thrombin [1]): 15 fold decrease

B2: synthetic anti-exosite 1 IgG antibody (antibody, V domains shown)
VH: QVQLIQSGSAVKKPGASVRVSCKVSGYTLTEAAIHWVRQAPGKGLEWMGGLDPQDGETVYAQQFKGRVTMTEDRSTDTAYMEVNNLRSEDTATYYCTTGDFSEFEPFSMDYFHFWGQGTVVTVAS
VL: EIVLTQSPATLSLSPGERATLSCRASQNVSSFLAWYQHKPGQAPRLLIYDASSRATDIPIRFSGSGSGTDFTLTISGLEPEDFAVYYCQQRRSWPPLTFGGGTKVEIKR
notes: also called synthetic IgG; anti-exosite IgG antibody
binding result (prothrombin): no binding (tested: 500nM)

B3: synthetic anti-exosite 1 IgG S30A variant antibody (antibody, name in Kabat numbering, V domains shown)
VH: QVQLIQSGSAVKKPGASVRVSCKVSGYTLTEAAIHWVRQAPGKGLEWMGGLDPQDGETVYAQQFKGRVTMTEDRSTDTAYMEVNNLRSEDTATYYCTTGDFSEFEPFSMDYFHFWGQGTVVTVAS
VL: EIVLTQSPATLSLSPGERATLSCRASQNVASFLAWYQHKPGQAPRLLIYDASSRATDIPIRFSGSGSGTDFTLTISGLEPEDFAVYYCQQRRSWPPLTFGGGTKVEIKR
notes: also called ichorcumab S30A; ichorcumab
binding result (human thrombin [2]): binds
